US9512196B2, “Short-form human MD-2 as a negative regulator of toll-like receptor 4 signaling” (Cedars-Sinai Medical Center, priority 2008, dated 2016)

Tests used:
[1] = molecular target: T1, TLR4 (Homo sapiens, UniProt O00206); assay: IL-8 secretion by HEK293 TLR4 reporter cells after LPS; type: cell-based
T1 construct: expressed in transfected cells; host or cells: HEK293
Method: (A) HEK-293 cells stably transfected with TLR4 and a NF-κB reporter gene were treated with supernatants containing either MD-2 or MD-2s as described in the examples herein. Cells were left untreated or stimulated with LPS for 24 h. Mean relative stimulation of luciferase activity±S.D. for a representative experiment, each performed in triplicate, is shown. (B) HEK-293 cells stably transfected with TLR4 and a NF-κB reporter gene were transiently transfected with plasmids encoding for either MD-2, MD-2s or CD14 as shown. 24 h later, cells were left untreated or stimulated with LPS (250 ng/ml) for 6 h. Mean relative stimulation of luciferase activity±SD for a representative experiment, each performed in triplicate, is shown. (C) and (D) Supernatants were also collected and measured for IL-8 secretion.
The requirement for MD-2s in LPS mediated NF-κB activation was assessed. It has been shown that the soluble form of wild-type MD-2 confers LPS responsiveness to cells expressing TLR4; therefore, it was investigated if soluble MD-2s was also bioactive. Culture supernatants were obtained from HEK293 cells transiently expressing control vector, MD-2, or MD-2s, and incubated with HEK293 cells stably transfected with TLR4 and an NF-κB-dependent luciferase reporter gene. […]

[2] = molecular target: T1, TLR4; assay: Co-immunoprecipitation with Flag-tagged TLR4 in HEK293 cells; type: binding; conditions: Myc-tagged protein, anti-Flag co-immunoprecipitation
Method: (A) Cells stably expressing CFP-tagged TLR4 were transiently transfected with plasmids encoding wild-type MD-2 (upper panels) or MD-2s (lower panels). 24 h later, cells were incubated with an anti-Myc antibody and cross-liked with Alexa 647-conjugated anti-mouse polyclonal secondary antibody. (B) HEK293 cells were transiently transfected with a plasmid encoding for Flag-tagged TLR4 (lane 2) and cotransfected with either a Myc-tagged MD-2 (lane 3) or a Myc-tagged MD-2s (lanes 1 and 4) expressing plasmid. Co-immunoprecipitation experiments were then performed using an anti-Flag antibody (lanes 2-4) or an IgG isotype control antibody (lane 1). Samples were fractionated by SDS-PAGE and immunoblotting with an anti-Myc antibody was performed. Experiment shown is representative of 4 separate experiments.
HEK 293 cells were seeded into 100 mm dishes (1.5×10^6) 24 h prior to transfection. Transfections were performed according to the manufacturer's instructions using lipofectamine. […] For immunoblotting, primary antibodies were detected using horseradish peroxidase-conjugated secondary antibodies, followed by enhanced chemiluminescence (Amersham Biosciences).
To address this possibility, co-localization studies to examine the cellular distribution of MD-2s with respect to TLR4 were performed. […] Next whether MD-2s is physically associated with TLR4 was assessed. […]

T1 sequence (O00206 24-839): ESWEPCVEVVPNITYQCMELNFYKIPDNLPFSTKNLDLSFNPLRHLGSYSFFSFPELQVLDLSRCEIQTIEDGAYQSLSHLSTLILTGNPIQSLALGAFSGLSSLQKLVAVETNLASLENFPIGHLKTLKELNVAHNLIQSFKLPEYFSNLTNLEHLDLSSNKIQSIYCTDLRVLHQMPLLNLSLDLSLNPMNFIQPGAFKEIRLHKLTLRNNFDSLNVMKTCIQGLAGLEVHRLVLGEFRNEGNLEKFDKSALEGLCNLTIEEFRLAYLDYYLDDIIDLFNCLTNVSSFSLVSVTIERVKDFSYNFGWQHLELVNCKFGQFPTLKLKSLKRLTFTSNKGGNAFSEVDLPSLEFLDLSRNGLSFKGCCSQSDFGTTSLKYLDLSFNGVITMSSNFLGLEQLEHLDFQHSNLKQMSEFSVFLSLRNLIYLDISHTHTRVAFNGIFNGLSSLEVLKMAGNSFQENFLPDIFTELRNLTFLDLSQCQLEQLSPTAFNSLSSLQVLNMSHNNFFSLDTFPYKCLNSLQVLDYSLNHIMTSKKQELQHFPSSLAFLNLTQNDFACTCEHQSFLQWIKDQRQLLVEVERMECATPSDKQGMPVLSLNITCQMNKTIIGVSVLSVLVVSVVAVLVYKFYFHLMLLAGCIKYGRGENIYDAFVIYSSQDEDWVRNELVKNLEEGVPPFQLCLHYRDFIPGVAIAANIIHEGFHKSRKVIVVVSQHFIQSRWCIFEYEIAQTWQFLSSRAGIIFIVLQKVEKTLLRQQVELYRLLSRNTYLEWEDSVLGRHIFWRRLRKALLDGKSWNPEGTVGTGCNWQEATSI

B1: MD-2s: alternatively spliced isoform of human MD-2 lacking exon 2, with D38G substitution; expressed and secreted protein sequences in Table 1 (protein, listed as Homo sapiens)
chain 1: MLPFLFFSTLFSSIFTEAQKQYWVCNSSDASISYTYCGRDLKQLYFNLYITVNTMNLPKRKEVICRGSDDDYSFCRALKGETVNTTISFSFKGIKFSKGKYKCVVEAISGSPEEMLFCLEFVILHQPNSN
chain 2: EAQKQYWVCNSSDASISYTYCGRDLKQLYFNLYITVNTMNLPKRKEVICRGSDDDYSFCRALKGETVNTTISFSFKGIKFSKGKYKCVVEAISGSPEEMLFCLEFVILHQPNSN
Question: B1 was tested. Which “LPS-dependent IL-8 secretion conferred by soluble protein” value ([1]; culture supernatants added to HEK293 TLR4 reporter cells) did it give?
Answer: could not confer LPS responsiveness

Question: And the “LPS-mediated IL-8 secretion on transient expression” value ([1]; plasmid transfected with CD14 into HEK293 TLR4/NF-κB reporter cells)?
Answer: unable to induce

Question: And the “Interaction with TLR4” value [2]?
Answer: direct interaction between MD-2s and TLR4 was observed
